Measurements published in patent US20240270826A1 (NATIONAL RESEARCH COUNCIL OF CANADA, published 2024).
Read-outs that look alike come from different tables or passages of the source.

Tests used:
[1] = molecular target: SARS-CoV-2 RBD (aa319-541) (Wuhan), monomeric (SARS-CoV-2 Wuhan, UniProt P0DTC2 319-541); experiment: SPR, monomeric RBD over captured VHH-Fc
[2] = molecular target: T1, SARS-CoV-2 spike trimer S (Wuhan, SmT1) (SARS-CoV-2 Wuhan); experiment: SPR, antigen on chip
T1 construct: extracellular domain

[3] = molecular target: T2, SARS-CoV-2 S1 (aa16-685) (Wuhan) (SARS-CoV-2 Wuhan, UniProt P0DTC2 16-685); experiment: SPR, antigen on chip
T2 construct: NRC; FLAG, 6xHis tags

[4] = molecular target: T3, SARS-CoV-2 S2 (aa686-1208) (Wuhan) (SARS-CoV-2 Wuhan, UniProt P0DTC2 686-1208); experiment: SPR, antigen on chip
T3 construct: NRC; FLAG, 6xHis tags

[5] = molecular target: T4, SARS-CoV-2 S1-RBD fused to human Fc (S1-RBD-Fc) (SARS-CoV-2 Wuhan; human); experiment: SPR, antigen on chip
RBD (aa319-541) (Wuhan) [6] = molecular target: T5, RBD (aa319-541) (Wuhan) (SARS-CoV-2 (Wuhan), UniProt P0DTC2 319-541); experiment: SPR, RBD over captured VHH-Fc (per Table 11 footnote)
[7] = molecular target: SARS-CoV-2 S1-NTD (aa16-305) (SARS-CoV-2 Wuhan, UniProt P0DTC2 16-305); experiment: ELISA
[8] = molecular target: T3, SARS-CoV-2 S2 (aa686-1208) (Wuhan); experiment: ELISA
RBD (aa319-541) (Wuhan) [9] = molecular target: T5, RBD (aa319-541) (Wuhan); experiment: SPR, RBD over captured VHH-Fc
RBD_SARS-CoV (aa306-527) = RBD_SARS-CoV (aa306-527) (SARS-CoV, UniProt P59594 306-527); experiment: SPR, RBD over captured VHH-Fc
[10] = molecular target: T6, SARS-CoV-2 S on CHO-S cells (SARS-CoV-2, UniProt P0DTC2 14-1273); experiment: flow cytometry, CHO-S cells
T6 construct: whole, on cells

[11] = molecular target: T7, SARS-CoV-2 spike protein S on live virus, Wuhan (strain SARS-CoV-2/Canada/VIDO-01/2020) (SARS-CoV-2 (Wuhan), UniProt P0DTC2 14-1273); experiment: cell-based or functional assay
[12] = molecular target: T7, SARS-CoV-2 spike protein S on live …; experiment: cell-based or functional assay; remark: listed apart in the source
[13] = molecular target: T8, Human SARS-CoV-2_Wuhan S (SmT1) (SARS-CoV-2 (Wuhan), UniProt P0DTC2 14-1208); experiment: sandwich ELISA: biotin NRCoV2-02 VHH capture, antigen titrated, VHH-Fc detector
[14] = molecular target: T9, SARS-CoV-2 S1 (aa16-685) (Wuhan) (SARS-CoV-2 (Wuhan), UniProt P0DTC2 16-685); experiment: as above
[15] = molecular target: T10, SARS-CoV-2 S1-RBD (Wuhan) (SARS-CoV-2 (Wuhan), UniProt P0DTC2 319-541); experiment: as above
T10 construct: domain: S1-RBD

[16] = molecular target: T8, Human SARS-CoV-2_Wuhan S (SmT1); experiment: as above; remark: listed apart in the source
[17] = molecular target: T9, SARS-CoV-2 S1 (aa16-685) (Wuhan); experiment: as above; remark: listed apart in the source
[18] = molecular target: T10, SARS-CoV-2 S1-RBD (Wuhan); experiment: as above; remark: listed apart in the source
[19] = molecular target: T8, Human SARS-CoV-2_Wuhan S (SmT1); experiment: flow cytometry SVNA, VHH-Fc vs biotin-S binding to Vero E6 ACE2
[20] = molecular target: Human SARS-CoV-2_Wuhan S (SmT1) (SARS-CoV-2 (Wuhan), UniProt P0DTC2 14-1208); experiment: tandem SPR, immobilized S, orientation 1: VHH alone
[21] = molecular target: T3, SARS-CoV-2 S2 (aa686-1208) (Wuhan); experiment: SPR single-cycle kinetics, VHH over immobilized S2 [cont.]
[22] = molecular target: T1, SARS-CoV-2 spike trimer S (Wuhan, SmT1); experiment: flow cytometry, inhibition of S binding to ACE2 on Vero E6 cells, monomeric VHH
[23] = molecular target: T1, SARS-CoV-2 spike trimer S (Wuhan, SmT1); experiment: SPR, antigen on chip; remark: listed apart in the source
[24] = molecular target: T2, SARS-CoV-2 S1 (aa16-685) (Wuhan); experiment: SPR, antigen on chip; remark: listed apart in the source
[25] = molecular target: T3, SARS-CoV-2 S2 (aa686-1208) (Wuhan); experiment: SPR, antigen on chip; remark: listed apart in the source
[26] = molecular target: T4, SARS-CoV-2 S1-RBD fused to human Fc …; experiment: SPR, antigen on chip; remark: listed apart in the source

B1: NRCoV2-MRed05 VHH-Fc (Fc fusion)
chain: EVQLVESGGGLVQPGGSLRLSCAASGFTLDYYAIGWFRQAPGKEREGVSCISSSDGSTLYADSVKGRFTISRDNAKNTVYLQMNSLKPEDTAVYYCATGPQAYYSGSYYFQCPQAGMDYWGKGTQVTVSS
notes: bivalent
Work on B1 yielded a Kd [1] of 0.763 nM, a koff [1] of 0.000496 s⁻¹ and a kon [1] of 650000 M⁻¹ s⁻¹.

B2: NRCoV2-MRed04 VHH (VHH)
VHH: EVQLVESGGGLVQPGRSLRLSCAASGNSFSISTMGWFRQAPGKERELVASIWSDTTTSYADSVKGRFTISTDNTRTKVYLQMSSLNPEDTAVYYCAADRGFVVRGQYDYWGQGTQVTVSS
Binder B2 has a Kd [2] of 1.09 nM, a koff [2] of 0.0015 s⁻¹ and a kon [2] of 1.39e+06 M⁻¹ s⁻¹. It also gave a Kd [3] of 1.68 nM, a koff [3] of 0.00183 s⁻¹ and a kon [3] of 1.09e+06 M⁻¹ s⁻¹. The binding result [4] was “no binding”, the Kd [5] was 2.06 nM and the koff [5] was 0.00176 s⁻¹. For the same binder, the kon [5] was 855000 M⁻¹ s⁻¹.

B3: NRCoV2-12 VHH-Fc (Fc fusion)
chain: EVQLQQSGGGLVQAGGSLRLSCAASGRTFRNYVMGWFRQAPQAPGKDHEFVAAISWGGTEIYYADSVKGRFTISRDNAKNTVYLQMNSLKPEDTAVYYCAADRGLSYYYTRTTEYNYWGQGTQVTVSS
For B3, the Kd (RBD (aa319-541) (Wuhan) [6]) was 0.047 nM, the binding result [7] was “no binding (tested: 13 nM)” and the binding result [8] was “no binding (tested: 13 nM)”. The Kd (RBD (aa319-541) (Wuhan) [9]) was 0.0469 nM, the koff (RBD (aa319-541) (Wuhan) [9]) was 3.5e-05 s⁻¹ and the kon (RBD (aa319-541) (Wuhan) [9]) was 747000 M⁻¹ s⁻¹. The Kd (RBD_SARS-CoV (aa306-527)) was 2.69 nM, the koff (RBD_SARS-CoV (aa306-527)) was 0.00101 s⁻¹ and the kon (RBD_SARS-CoV (aa306-527)) was 376000 M⁻¹ s⁻¹. It also gave a Bmax [10] of 21800 and an EC50 [10] of 0.8 nM.

B4: NRCoV2-07 VHH-Fc (Fc fusion)
chain: QVQLVQSGGGLVQPGGSLRLSCAASGVTLDYYAIGWFRQAPGKEREAVSCISSNGRRNHYVASVRGRFTISRDNAKSTVYLQMNSLKPEDTAVYYCAAVQDVHGDNYYCTSPNEYNVWGQGTQVTVSS
notes: bivalent VHH-Fc
B4 was tested, and the MN100 [11] was 1.25 nM, the “LVNA IC50” value [12] was 6.15 nM and the SC50 [13] was 18 ng/mL. The SC50 [14] was 5 ng/mL, the SC50 [15] was 0.7 ng/mL and the Limit of detection [16] was 1.4 ng/mL. The Limit of detection [17] was 0.46 ng/mL, the Limit of detection [18] was 0.08 ng/mL and the IC50 [19] was 6.8 nM. It also gave an IC99 [19] of 98.9 nM and an Imax % [19] of 89%.

B5: NRCoV2-04 VHH-Fc (Fc fusion)
chain: AVQLVDSGGGLVQPGGSLRLSCAASGSPFSNVVMAWYRQAPGKQRERVAFISGGGIADYIMSVKGRFTISRDNAKNTVYLQMNSLKPEDTAVYYCWSSYESTWGQGTQVTVSS
notes: bivalent VHH-Fc
B5 was tested, and the MN100 [11] was 1.25 nM, the “LVNA IC50” value [12] was 1.65 nM and the SC50 [13] was 39 ng/mL. For the same binder, the SC50 [14] was 25 ng/mL, the SC50 [15] was 3.3 ng/mL and the Limit of detection [16] was 4.1 ng/mL. For the same binder, the Limit of detection [17] was 4.12 ng/mL, the Limit of detection [18] was 0.46 ng/mL and the IC50 [19] was 11.7 nM. It also gave an IC99 [19] of 420 nM and an Imax % [19] of 51%.

B6: NRCoV2-SR03 VHH (VHH)
VHH: AVQLVDSGGGLVQAGGSLRLSCAASGSIFSNNHMGWYRQAPGKQRELVAAISSGGKTNYADFAKGRFTISRDNAKNMVYLQMNSLKPEDTAVYYCNRGGWEYRSSYYIMGPHWGQGTQVTVSS
For B6, the “End 1st inj (RU)” value [20] was 18.5 RU and the binding result [21] was “no binding (tested: 20 nM)”.

B7: NRCoV2-02 VHH (VHH)
VHH: EVQLVESGGGLVQAGGSLRLSCAASGFTFSNYAMNWVRQAPGKGLEWVSGISGRGDDTRYADSVKGRFTISRDNAKNTLFLQMRSLRPEDTGVYRCTKGPDLYYFGSGYSDRGQGTQVTVSS
For B7, the “End 1st inj (RU)” value [20] was 33 RU and the binding result [21] was “no binding (tested: 10 nM)”.

B8: NRCoV2-17 VHH (VHH)
VHH: EVQLQQSGGGLVQTGGSLRLSCAAAGSPFSQLAMSWYRQISGKERAWVASISPTGNRSYSKIAKGRFTISRDNAKNTVTLQMTSLKPEDTAAYICQAANVNGGDYWGQGTQVTVSS
B8 showed an IC50 [22] of 9.4 nM, a Kd [23] of 0.149 nM and a koff [23] of 9.79e-05 s⁻¹. The kon [23] was 659000 M⁻¹ s⁻¹, the Kd [24] was 0.153 nM and the koff [24] was 9.66e-05 s⁻¹. For the same binder, the kon [24] was 629000 M⁻¹ s⁻¹, the binding result [25] was “no binding” and the Kd [26] was 0.395 nM. It also gave a koff [26] of 0.000224 s⁻¹ and a kon [26] of 567000 M⁻¹ s⁻¹.

B9: NRCoV2-1d VHH-Fc (Fc fusion)
chain: EVQLVESGGGSVQPGGSLRLSCAASGSTLDYYAIGWFRQAPGKEREWVSSVSSSDGNTLYADSVKGRFTISRDNAKNTVYLQMNSLKAEDTAVYVCAADYSMRPFAVGRWHRDYEYWGQGTQVTVSS
notes: bivalent VHH-Fc
For B9, the MN100 [11] was 0.25 nM, the “LVNA IC50” value [12] was 1.94 nM and the SC50 [13] was 25 ng/mL. The SC50 [14] was 16 ng/mL, the SC50 [15] was 1.7 ng/mL and the Limit of detection [16] was 1.4 ng/mL. It also gave a Limit of detection [17] of 1.37 ng/mL, a Limit of detection [18] of 0.15 ng/mL and an IC50 [19] of 5.4 nM. For the same binder, the IC99 [19] was 42 nM and the Imax % [19] was 89%.

B10: NRCoV2-11 VHH-Fc (Fc fusion)
chain: EVQLVSSGGGLVQPGGSLRLSCAASGSSLDSYSVSWFRQAPGKEREWISFISRYYSSTYYTDSVKGRFTTSRDGDQKTVHLQMNSLKPEDTAVYYCAARSRDFSSPFSATDTYTSWGQGTQVTVSS
notes: bivalent VHH-Fc
In the case of B10, the “LVNA IC50” value [12] is reported as 9.9 nM, the SC50 [13] is reported as 20 ng/mL and the SC50 [14] is reported as 6 ng/mL. For the same binder, the SC50 [15] was 0.8 ng/mL, the Limit of detection [16] was 1.4 ng/mL and the Limit of detection [17] was 0.46 ng/mL. The Limit of detection [18] was 0.08 ng/mL, the IC50 [19] was 9.7 nM and the IC99 [19] was 99.8 nM. The Imax % [19] was 63%.

B11: NRCoV2-11 VHH (VHH)
VHH: EVQLVSSGGGLVQPGGSLRLSCAASGSSLDSYSVSWFRQAPGKEREWISFISRYYSSTYYTDSVKGRFTTSRDGDQKTVHLQMNSLKPEDTAVYYCAARSRDFSSPFSATDTYTSWGQGTQVTVSS
With B11 the IC50 [22] was 16.8 nM, the Kd [23] was 0.0391 nM and the koff [23] was 4.73e-05 s⁻¹. For the same binder, the kon [23] was 1.21e+06 M⁻¹ s⁻¹, the Kd [24] was 0.167 nM and the koff [24] was 0.00018 s⁻¹. It also gave a kon [24] of 1.08e+06 M⁻¹ s⁻¹, a Kd [26] of 0.253 nM and a koff [26] of 0.000226 s⁻¹. The kon [26] was 892000 M⁻¹ s⁻¹.
